# Test results reported in patent publication US20200165335A1 (Seagen, published 2020).
# “And” between values parts separate entries of the source, which are not always exact repeats. Equal values may be shown once.
# T1: human LIV-1 (human, UniProt Q13433 29-755)
# T1 construct: also called hLIV-1; Q13433
# T1 sequence: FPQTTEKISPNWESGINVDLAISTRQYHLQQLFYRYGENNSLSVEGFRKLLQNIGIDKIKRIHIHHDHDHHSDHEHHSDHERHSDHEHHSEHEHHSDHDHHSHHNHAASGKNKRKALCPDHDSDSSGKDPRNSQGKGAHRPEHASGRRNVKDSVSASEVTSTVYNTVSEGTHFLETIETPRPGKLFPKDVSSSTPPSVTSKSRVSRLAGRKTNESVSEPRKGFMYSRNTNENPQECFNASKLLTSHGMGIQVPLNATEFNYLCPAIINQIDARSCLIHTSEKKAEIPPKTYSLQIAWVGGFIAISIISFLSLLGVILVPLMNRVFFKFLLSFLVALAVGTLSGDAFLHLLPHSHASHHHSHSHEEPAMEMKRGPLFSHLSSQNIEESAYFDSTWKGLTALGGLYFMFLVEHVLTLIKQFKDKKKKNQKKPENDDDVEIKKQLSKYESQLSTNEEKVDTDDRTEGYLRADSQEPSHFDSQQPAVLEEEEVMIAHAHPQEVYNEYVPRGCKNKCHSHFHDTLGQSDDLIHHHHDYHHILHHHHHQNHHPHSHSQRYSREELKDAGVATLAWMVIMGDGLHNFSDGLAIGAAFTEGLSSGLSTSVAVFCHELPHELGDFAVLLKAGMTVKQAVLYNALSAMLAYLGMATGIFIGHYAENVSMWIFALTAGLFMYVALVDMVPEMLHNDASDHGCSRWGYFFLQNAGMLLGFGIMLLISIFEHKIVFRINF
# T2: cynomolgus monkey LIV-1 (cynomolgus monkey, UniProt Q5R9M9 28-743 (Pongo abelii entry))
# T2 construct: Recombinant on transfected CHO cells; also called cyno LIV-1; cyLIV-1
# T2 chain: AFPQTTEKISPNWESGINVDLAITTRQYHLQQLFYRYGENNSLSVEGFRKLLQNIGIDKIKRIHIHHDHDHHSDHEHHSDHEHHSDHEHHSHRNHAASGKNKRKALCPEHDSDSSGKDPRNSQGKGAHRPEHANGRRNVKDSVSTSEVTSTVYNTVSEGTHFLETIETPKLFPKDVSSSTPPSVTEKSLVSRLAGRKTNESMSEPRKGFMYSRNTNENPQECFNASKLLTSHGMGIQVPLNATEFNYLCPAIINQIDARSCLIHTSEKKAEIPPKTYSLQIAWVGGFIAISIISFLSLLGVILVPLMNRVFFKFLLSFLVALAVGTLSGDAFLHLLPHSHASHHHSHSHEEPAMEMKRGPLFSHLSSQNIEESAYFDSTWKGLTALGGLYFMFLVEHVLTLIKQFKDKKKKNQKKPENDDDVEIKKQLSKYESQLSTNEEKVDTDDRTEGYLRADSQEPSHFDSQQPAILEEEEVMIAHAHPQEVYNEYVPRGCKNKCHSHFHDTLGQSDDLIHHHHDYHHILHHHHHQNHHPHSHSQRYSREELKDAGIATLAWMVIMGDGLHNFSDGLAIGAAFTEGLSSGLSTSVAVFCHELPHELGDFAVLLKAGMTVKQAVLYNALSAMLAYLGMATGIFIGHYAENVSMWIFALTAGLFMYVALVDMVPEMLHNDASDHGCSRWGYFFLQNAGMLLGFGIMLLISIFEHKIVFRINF
# T3: human LIV-1 (UniProt Q13433 29-755)
# T3 chain: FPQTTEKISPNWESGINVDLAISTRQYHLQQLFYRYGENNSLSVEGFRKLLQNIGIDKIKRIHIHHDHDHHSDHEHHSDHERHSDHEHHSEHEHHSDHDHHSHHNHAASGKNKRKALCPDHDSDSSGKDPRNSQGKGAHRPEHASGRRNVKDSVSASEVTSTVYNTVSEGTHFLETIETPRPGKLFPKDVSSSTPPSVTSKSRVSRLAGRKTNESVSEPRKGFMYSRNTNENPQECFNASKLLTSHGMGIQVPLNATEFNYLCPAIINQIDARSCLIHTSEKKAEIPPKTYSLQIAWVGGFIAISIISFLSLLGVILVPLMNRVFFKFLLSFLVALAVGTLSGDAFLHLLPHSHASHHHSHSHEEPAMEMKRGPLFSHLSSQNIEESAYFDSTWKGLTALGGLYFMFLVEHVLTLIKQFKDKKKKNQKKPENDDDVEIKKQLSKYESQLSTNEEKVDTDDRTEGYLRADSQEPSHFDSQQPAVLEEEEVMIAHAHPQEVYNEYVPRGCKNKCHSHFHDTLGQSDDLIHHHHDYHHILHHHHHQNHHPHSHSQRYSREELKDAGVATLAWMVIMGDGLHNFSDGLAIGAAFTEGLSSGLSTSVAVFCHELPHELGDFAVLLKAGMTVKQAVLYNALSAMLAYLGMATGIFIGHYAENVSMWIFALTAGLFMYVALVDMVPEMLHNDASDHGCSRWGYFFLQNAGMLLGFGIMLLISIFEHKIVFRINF
# B1: murine LIV-1 monoclonal antibody BR2-14a (antibody, V domains shown)
# VH: QVQLQQSGAELVRSGASVKLSCTASGFNIEDYYMHWVKQRPKQGLEWIGWIDPENGDTEYAPTFQGKATMTADTSSNTAYLQLSSLTSEDTAVYYCNVHDAHYGTWFAYWGQGTLVTVSA
# VL: DVLMTQTPLSLPVSLGDQASISCRSSQSIIRNDGNTYLEWYLQKPGQSPKLLIYRVSNRFSGVPDRFSGSGSGTDFTLKISRVEAEDLGVYYCFQGSHVPYTFGGGTKLEIKR
# notes: Mouse monoclonal from hybridoma ATCC PTA-5705A; also called parental murine mAb; murine LIV-1 mAb
# B2: humanized BR2-22a antibody HELC (antibody, V domains shown)
# VH: QVQLVQSGAEVKKPGASVKVSCKASGLNIEDYYMHWVRQAPGQGLEWIGWIDPENGDTEYGPKFQGKATMTADTSINTAYMELSRLRSDDTAVYYCTVHNAHYGTWFAYWGQGTLVTVSS
# VL: DVVMTQSPLSLPVTLGQPASISCRSSQSLLHSSGNTYLEWFLQRPGQSPRRLIYKISTRFSGVPDRFSGSGSGTDFTLKISRVEAEDVGVYYCFQGSHVPYTFGGGTKVEIKR
# notes: also called hLIV-22 HE + hLIV-22 LC
# B3: humanized BR2-22a antibody HELG (antibody, V domains shown)
# VH: QVQLVQSGAEVKKPGASVKVSCKASGLNIEDYYMHWVRQAPGQGLEWIGWIDPENGDTEYGPKFQGKATMTADTSINTAYMELSRLRSDDTAVYYCTVHNAHYGTWFAYWGQGTLVTVSS
# VL: DVVMTQSPLSLPVTLGQPASISCRSSQSLLHSSGNTYLEWYQQRPGQSPRPLIYKISTRFSGVPDRFSGSGSGTDFTLKISRVEAEDVGVYYCFQGSHVPYTFGGGTKVEIKR
# notes: also called hLIV-22 HE + hLIV-22 LG
# B4: humanized BR2-14a antibody HBLB S239C (antibody, human IgG1, kappa, V domains shown)
# VH: QVQLVQSGAEVKKPGASVKVSCKASGYTIEDYYMHWVRQAPGQGLEWMGWIDPENGDTEYAPTFQGRVTMTRDTSINTAYMELSRLRSDDTAVYYCARHDAHYGTWFAYWGQGTLVTVSS
# VL: DVVMTQSPLSLPVTLGQPASISCRSSQSIIRNDGNTYLEWYQQRPGQSPRRLIYRVSNRFSGVPDRFSGSGSGTDFTLKISRVEAEDVGVYYCFQGSHVPYTFGGGTKVEIKR
# notes: also called LIV-14d; hLIV-14 HBLB S239C
# B5: humanized BR2-14a antibody HELE (antibody, V domains shown)
# VH: QVQLVQSGAEVKKPGASVKVSCKASGFNIEDYYMHWVRQAPGQGLEWIGWIDPENGDTEYAPTFQGKATMTADTSINTAYMELSRLRSDDTAVYYCNVHDAHYGTWFAYWGQGTLVTVSS
# VL: DVVMTQSPLSLPVTLGQPASISCRSSQSIIRNDGNTYLEWFQQRPGQSPRLLIYRVSNRFSGVPDRFSGSGSGTDFTLKISRVEAEDVGVYYCFQGSHVPYTFGGGTKVEIKR
# notes: also called hLIV-1 HE + hLIV-1 LE
# Columns and labels:
# human LIV-1 [1] = target: T1, human LIV-1; test: saturation binding, flow cytometry, MCF7 cells
# Procedure: (§1) 1×10⁵ antigen expressing cells (either MCF7 cells (ATCC) expressing human LIV-1, a transfected CHO cell line expressing human LIV-1 or a transfected CHO cell line expressing cyno LIV-1) were aliquoted per well of a 96-well v-bottom plates. […] Cells were pelleted and washed 3× with PBS/BSA. The cells were then pelleted and resuspended in 125 μL of PBS/BSA. Fluorescence was analyzed by flow cytometry, using percent of saturated fluorescent signal to determine percent bound and to subsequently calculate apparent Kd.
# cynomolgus monkey LIV-1 [2] = target: T2, cynomolgus monkey LIV-1; test: saturation binding of AF647-labelled antibody, flow cytometry, CHO (cyLIV-1) cells
# Procedure: as §1
# human LIV-1 [3] = target: T1, human LIV-1; test: saturation binding, flow cytometry, comparison of the cell lines of Table 1
# Procedure: as §1
# human LIV-1 [4] = target: T3, human LIV-1; test: competition binding on CHO hLIV1 cells
# human LIV-1 [5] = target: T1, human LIV-1; test: saturation binding of AF647-labelled antibody, flow cytometry, MCF-7 (ATCC) cells, endogenous hLIV-1
# Procedure: as §1
# human LIV-1 [6] = target: T1, human LIV-1; test: saturation binding of AF647-labelled antibody, flow cytometry, CHO (hLIV-1) cells
# Procedure: as §1
# human LIV-1 [7] = target: T1, human LIV-1; test: saturation binding of AF647-labelled antibody, flow cytometry, 293F (hLIV-1) cells
# human LIV-1 [8] = target: T3, human LIV-1; test: saturation binding, flow cytometry on MCF7 cells; AF-labeled
# human LIV-1 [9] = target: T1, human LIV-1; test: competition flow cytometry, CHO cells expressing recombinant LIV-1, vs 5 nM AF647-labelled BR2-22a
# Procedure: (§2) 1×10⁵ CHO cells expressing recombinant LIV-1 in PBS were aliquoted into each well of a 96-well v-bottom plates on ice. […] Cells were pelleted and washed 3 times with PBS. The cells were then pelleted and resuspended in 125 μL of PBS/BSA. Fluorescence was analyzed by flow cytometery, using percent of saturated fluorescent signal to determine percent labeled humanized BR2-22a antibody bound and to subsequently extrapolate the EC50 by fitting the data to a sigmoidal dose-response curve with variable slope.
# All permutations of these five heavy chains and six light chains were then tested in a competition assay compared with BR2-22a (see FIG. 17).
# cynomolgus monkey LIV-1 [10] = target: T2, cynomolgus monkey LIV-1; test: EC50 determination, CHO cells expressing recombinant cyno LIV-1
# Procedure: as §2, with “recombinant cyno” for “recombinant”, “in” for “into”, “were” for “were then”, “cytometry,” for “cytometery,”, “murine LIV-1 mAb” for “humanized BR2-22a antibody”
# human LIV-1 [11] = target: T1, human LIV-1; test: comparison of the EC50s of Table 3, CHO cells expressing human LIV-1
# Procedure: as §2, with “recombinant human” for “recombinant”, “in PBS/BSA” for “in PBS”, “with PBS/BSA.” for “with PBS.”, “were” for “were then”, “flow cytometry,” for “flow cytometery,”, “labeled murine LIV-1 mAb” for “labeled humanized BR2-22a antibody”
# human LIV-1 [12] = target: T1, human LIV-1; test: competition flow cytometry, CHO cells expressing human LIV-1, vs 5 nM AF647-labelled BR2-14a
# Procedure: as §2, with “recombinant human” for “recombinant”, “in PBS/BSA” for “in PBS”, “with PBS/BSA.” for “with PBS.”, “were” for “were then”, “flow cytometry,” for “flow cytometery,”, “labeled murine LIV-1 mAb” for “labeled humanized BR2-22a antibody”
binder,measurement,setting,value
B1,Kd,human LIV-1 [1],2.9 nM
same,Kd,cynomolgus monkey LIV-1 [2],14 nM
same,fold lower dissociation constant for non-recombinant LIV-1 of a human cell line than for recombinant LIV-1,human LIV-1 [3],~5 fold
same,EC50,human LIV-1 [4],3.42 µg/mL
same,Kd,human LIV-1 [5],2.4 nM
same,Kd,human LIV-1 [6],12.5 nM
same,Kd,human LIV-1 [7],2.7 nM
same,Kd,human LIV-1 [8],0.8 µg/mL and 5.8 nM
B2,EC50,human LIV-1 [9],65.7 µg/mL
B3,EC50,human LIV-1 [9],0.2 µg/mL
B4,EC50,human LIV-1 [4],0.419 µg/mL
same,binding result,cynomolgus monkey LIV-1 [10],binds
B5,fold better binding than the next humanized antibody HBLF,human LIV-1 [11],≥ 2 fold
same,EC50,human LIV-1 [12],0.3 µg/mL
